From US7078174B1, “Screening methods using SOCS box-containing peptides” (The Walter & Eliza Hall Institute of Medical Research, priority 1998, dated 2006)

What was measured:
elongins B and C = target: T1, elongins B and C (Mus musculus, UniProt P62869+P83940); assay: Co-transfection of 293T cells with SOCS box proteins and elongins B and C, co-immunoprecipitation; type: binding; conditions: anti-myc immunoprecipitation, anti-FLAG Western blot
T1 construct: expressed in transfected cells; host or cells: 293T human fibroblast cell line, vector pEF-BOS
T1 sequence (P83940 whole entry): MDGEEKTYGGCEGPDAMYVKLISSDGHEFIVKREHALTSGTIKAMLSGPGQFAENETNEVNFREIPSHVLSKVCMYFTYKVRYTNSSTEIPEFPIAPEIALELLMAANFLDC
T1 sequence (P62869 whole entry): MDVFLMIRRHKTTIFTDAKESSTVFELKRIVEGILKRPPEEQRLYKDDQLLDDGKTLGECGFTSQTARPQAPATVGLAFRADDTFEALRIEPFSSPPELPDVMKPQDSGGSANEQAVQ
Description: The cDNAs encoding mouse SOCS-1, SOCS-3, WSB-1, SSB-1, ASB-1, have been described previously (1,8). Constructs in pEF-FLAG1 encoding these proteins, with or without the SOCS box, with an N-terminal FLAG epitope tag (DYKDDDDK) (SEQ ID NO:1) were generated by PCR essentially as described (8) (found at http://www.wehi.edu.au/willson vectors). DNA fragments encoding mouse elongins B and C were amplified using PCR from a 17-day embryo cDNA lambda library (Clontech ML5014t) and were expressed with N-terminal FLAG or myc (DQKLISEEDL) (SEQ ID NO:2) epitope tags, respectively, using the mammalian expression vector pEF-BOS.
The murine monocytic leukemic cell line, M1, and the 293T human fibroblast cell line were maintained and transfected as described (8).
(§1) Proteins were immunoprecipitated with anti-myc (9E10; WEHI) and protein A-Sepharose or anti-FLAG antibody conjugated to Sepharose (KM5-IC7; WEHI) and separated by sodium dodecyl sulphate-polyacrylamide gel electrophoresis (SDS-PAGE) (Biorad, Hercules, Calif.) under reducing conditions. Proteins were then electrophoretically transferred to PVDF-Plus membranes (Micron Separations Inc. WestBorough, Mass.) and Western blotted as described (8).

[1] = target: T2, endogenous elongins B and C (Mus musculus, UniProt P62869+P83940); assay: Interaction of FLAG-tagged SOCS-1 with endogenous elongins in M1 cells (anti-FLAG resin, Western blot); type: binding, murine; conditions: M1 cells stably expressing FLAG-tagged protein, anti-FLAG immunoprecipitation
T2 construct: endogenous in cells; host or cells: M1 murine monocytic leukemic cells
T2 sequence (P83940 whole entry): as the sequence (P83940 whole entry) above
T2 sequence (P62869 whole entry): as the sequence (P62869 whole entry) above
Method: Two liters of M1 cells stably expressing either full-length SOCS-1 or SOCS-1 lacking SOCS box (with N-terminal FLAG epitopes) were grown in DME containing 5% bovine calf serum, 10 μg/ml puromycin and 50 ng/ml murine IL-6. The cells were harvested and incubated in 20 ml of culture media containing 10 μM proteasome-specific inhibitor, N-acetyl-L-leucinyl-L-leucinyl-norleucinal (LLnL; Sigma, St. Louis, Mo.) for 30 min at 37° C. The cells were lysed in 14 ml of lysis buffer supplemented with protease inhibitors (Complete Cocktail tablets), 1 mM PMSF, 1 mM Na3VO4, 1 mM NaF and 10 μM LLnL. Total cell lysates were centrifuged at 15,000 rpm (SS34 rotor) for 15 min at 4° C. and the clarified supernatants incubated with 0.3 ml of M2 anti-FLAG antibody resin for 3 h at 4° C. Resin was then washed with 10 ml of lysis buffer and the bound proteins were eluted with 6×150 μl of 100 μg/m FLAG peptide in lysis buffer.
as §1

[2] = test system: elongin B, elongin C, cullin 2, JAK1, gp130; assay: Analysis of proteins interacting with SOCS-1 in unstimulated M1 cells (anti-FLAG affinity column, Western blot); type: binding, murine; conditions: 10^9 unstimulated M1 cells, anti-FLAG affinity column eluate
Description: The inventors passed lysates from 10^9 unstimulated M1 cells expressing FLAG-tagged SOCS-1 through an anti-FLAG affinity column which was then eluted with FLAG peptide. The eluate was then subjected to SDS-PAGE and the proteins were Western blotted. The blot was then probed with anti-FLAG antibodies to confirm the presence of SOCS-1 and with a range of antibodies against proteins thought to interact with SOCS-1 (FIG. 7). […] To determine whether proteins in this complex interact directly or indirectly with SOCS-1, or whether all the proteins can be found together in a single complex, or whether separate complexes are, for example, formed between SOCS-1, JAK-1 and gp130 on one hand and between SOCS-1, elongin B and C and cullin-2, is addressed in part by performing the primary immunoprecipitation using a different antibody.
Further, the nature of the complex is analyzed by repeating experiments using a mutant SOCS protein which lacks one or more domains. In the case described above, the inventors have performed an identical analysis using M1 cells expressing a FLAG-tagged mutant of SOCS-1 lacking the SOCS box. […] This type of experiment addresses whether interactions are direct or indirect. Further analysis involves approaches of the type described below.

| Molecule | co-immunoprecipitation with elongin C (and elongin B) (elongins B and C) | association with endogenous elongins B and C [1] | complex formation with elongin B, elongin C, cullin 2, JAK1 and gp130 [2] |
| --- | --- | --- | --- |
| SSB-1: N-terminally FLAG-tagged SSB-1 protein transfected into 293T fibroblasts (protein) DYKDDDDKMGQKVTGGIKTVDMRDPTYRPLKQELQGLDYCKPTRLDLLLDMPPVSYDVQLLHSWNNNDRSLNVFVKEDDKLIFHRHPVAQSTDAIRGKVGYTRGLHVWQITWAMRQRGTHAVVGVATADAPLHSVGYTTLVGNNHESWGWDLGRNRLYHDGKNQPSKTYPAFLEPDETFIVPDSFLVALDMDDGTLSFIVDGQYMGVAFRGLKGKKLYPVVSAVWGHCEIRMRYLNGLDPEPLPLMDLCRRSVRLALGKERLGAIPALPLPASLKAYLLYQ | found to co-immunoprecipitate along with elongin B with elongin C |  |  |
| full-length SOCS-1: N-terminally FLAG-tagged full-length mouse SOCS-1 stably expressed in M1 cells (protein) DYKDDDDKMVARNQVAADNAISPAAEPRRRSEPSSSSSSSSPAAPVRPRPCPAVPAPAPGDTHFRTFRSHSDYRRITRTSALLDACGFYWGPLSVHGAHERLRAEPVGTFLVRDSRQRNCFFALSVKMASGPTSIRVHFQAGRFHLDGSRETFDCLFELLEHYVAAPRRMLGAPLRQRRVRPLQELCRQRIVAAVGRENLARIPLNPVLRDYLSSFPFQI |  | associated with bound elongins B and C | capable of forming a complex with elongin B and elongin C, cullin 2, as well as JAK1 and gp130 |
| WSB-2: N-terminally FLAG-tagged WSB-2 protein transfected into 293T fibroblasts (protein) DYKDDDDKMEAGEEPLLLAELKPGRPHQFDWKSSCETWSVAFSPDGSWFAWSQGHCVVKLVPWPLEEQFIPKGFEAKSRSSKNDPKGRGSLKEKTLDCGQIVWGLAFSPWPSPPSRKLWARHHPQAPDVSCLILATGLNDGQIKIWEVQTGLLLLNLSGHQDVVRDLSFTPSGSLILVSASRDKTLRIWDLNKHGKQIQVLSGHLQWVYCCSISPDCSMLCSAAGEKSVFLWSMRSYTLIRKLEGHQSSVVSCDFSPDSALLVTASYDTSVIMWDPYTGERLRSLHHTQLEPTMDDSDVHMSSLRSVCFSPEGLYLATVADDRLLRIWALELKAPVAFAPMTNGLCCTFFPHGGIIATGTRDGHVQFWTAPRVLSSLKHLCRKALRSFLTTYQVLALPIPKKMKEFLTYRTF | found to co-immunoprecipitate along with elongin B with elongin C |  |  |
